# Assay results reported in publication PMC4003566.
# Molecular target: human α7 nAChR TM domain (human)
# Assay: SEC-MALS
substance,measurement,value
human α7 nAChR TM domain (domain or fragment),stoichiometry N,5
